Common to all, as to assay: ITC; β16β17 at 25–50 μM in the cell titrated with 15–20 injections to 2–2.5 eq of α0α1; one-site binding model; PBS (50 mM sodium phosphate, 150 mM NaCl, pH 7.04), 25 °C; mutants only against the wild-type partner
Holding throughout (conditions): both partners purified
For orientation: ITC needs no label: the signal is the heat of the interaction.

One experiment concerns the target T1, β16β17 V41A (human, UniProt P11277 1898-2083, V2044A).
T1 construct: erythrocyte β-spectrin, human, residues 1898-2083 (β16β17); mutant of m2; also called V2044A; source: E. coli C41(DE3), purified (Ni2+ agarose, thrombin cleavage, gel filtration)
T1 sequence (looked up): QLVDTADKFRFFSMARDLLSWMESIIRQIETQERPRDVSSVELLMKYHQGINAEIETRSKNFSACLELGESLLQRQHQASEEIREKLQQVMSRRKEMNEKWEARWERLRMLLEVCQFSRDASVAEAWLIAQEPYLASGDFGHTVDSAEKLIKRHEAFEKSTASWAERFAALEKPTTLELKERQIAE

Another experiment has as its target T2, β16β17 F62L (human, UniProt P11277 1898-2083, F2065L).
T2 construct: erythrocyte β-spectrin, human, residues 1898-2083 (β16β17); mutant of m2; also called F2065L; source: E. coli C41(DE3), purified (Ni2+ agarose, thrombin cleavage, gel filtration)
T2 sequence (looked up): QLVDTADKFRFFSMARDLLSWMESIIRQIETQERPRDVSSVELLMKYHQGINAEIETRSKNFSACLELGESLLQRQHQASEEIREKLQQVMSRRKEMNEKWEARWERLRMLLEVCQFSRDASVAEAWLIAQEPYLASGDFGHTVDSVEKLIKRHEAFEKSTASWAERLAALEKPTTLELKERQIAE

The next experiment concerns the target T3, β16β17 A15G (human, UniProt P11277 1898-2083, A2018G).
T3 construct: erythrocyte β-spectrin, human, residues 1898-2083 (β16β17); mutant of m2; also called A2018G; source: E. coli C41(DE3), purified (Ni2+ agarose, thrombin cleavage, gel filtration)
T3 sequence (looked up): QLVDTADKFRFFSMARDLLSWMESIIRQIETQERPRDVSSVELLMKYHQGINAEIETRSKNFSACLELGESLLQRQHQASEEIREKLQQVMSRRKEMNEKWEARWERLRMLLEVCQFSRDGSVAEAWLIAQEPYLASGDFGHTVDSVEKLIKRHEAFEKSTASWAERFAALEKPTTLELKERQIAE

In the next experiment the target is T4, β16β17 A18G (human, UniProt P11277 1898-2083, A2021G).
T4 construct: erythrocyte β-spectrin, human, residues 1898-2083 (β16β17); mutant of m2; also called A2021G; source: E. coli C41(DE3), purified (Ni2+ agarose, thrombin cleavage, gel filtration)
T4 sequence (looked up): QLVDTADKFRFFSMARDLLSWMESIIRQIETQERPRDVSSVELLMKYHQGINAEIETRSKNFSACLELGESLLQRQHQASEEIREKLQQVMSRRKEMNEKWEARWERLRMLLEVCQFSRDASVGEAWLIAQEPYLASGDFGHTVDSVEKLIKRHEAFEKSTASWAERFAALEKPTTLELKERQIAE

The next experiment concerns the target T5, β16β17 L29A (human, UniProt P11277 1898-2083, L2032A).
T5 construct: erythrocyte β-spectrin, human, residues 1898-2083 (β16β17); mutant of m2; also called L2032A; source: E. coli C41(DE3), purified (Ni2+ agarose, thrombin cleavage, gel filtration)
T5 sequence (looked up): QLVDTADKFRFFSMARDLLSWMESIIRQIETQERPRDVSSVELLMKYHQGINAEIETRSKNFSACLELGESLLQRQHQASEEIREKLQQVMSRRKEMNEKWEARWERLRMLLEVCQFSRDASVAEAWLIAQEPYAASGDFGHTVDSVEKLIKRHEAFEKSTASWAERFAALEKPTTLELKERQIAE

A further experiment concerns the target T6, β16β17 E19A (human, UniProt P11277 1898-2083, E2022A).
T6 construct: erythrocyte β-spectrin, human, residues 1898-2083 (β16β17); mutant of m2; also called E2022A; source: E. coli C41(DE3), purified (Ni2+ agarose, thrombin cleavage, gel filtration)
T6 sequence (looked up): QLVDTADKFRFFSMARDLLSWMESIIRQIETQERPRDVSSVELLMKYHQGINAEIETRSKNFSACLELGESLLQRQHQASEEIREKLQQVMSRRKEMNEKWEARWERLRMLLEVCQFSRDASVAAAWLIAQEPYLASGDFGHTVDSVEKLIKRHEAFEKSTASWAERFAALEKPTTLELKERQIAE

B1: α0α1 (erythrocyte α-spectrin residues 2–163), wild type (domain or fragment, human, UniProt P02549 2-163, looked up)
chain: EQFPKETVVESSGPKVLETAEEIQERRQEVLTRYQSFKERVAERGQKLEDSYHLQVFKRDADDLGKWIMEKVNILTDKSYEDPTNIQGKYQKHQSLEAEVQTKSRLMSELEKTREERFTMGHSAHEETKAHIEELRHLWDLLLELTLEKGDQLLRALKFQQY
notes: synthetic gene (GenScript) in a modified pRSETA plasmid; also called α1α0; source: E. coli C41(DE3), purified (Ni2+ agarose, thrombin cleavage, gel filtration)
On to B1, for which the Ka with β16β17 V41A was 420000 M⁻¹; in the experiment with β16β17 F62L, 100000 M⁻¹; with β16β17 A15G, 6000 M⁻¹; in the experiment with β16β17 A18G, 130000 M⁻¹; in the experiment with β16β17 L29A, 290000 M⁻¹; in the experiment with β16β17 E19A it was 93000 M⁻¹.

The values above are taken from paper PMC9082959, “Mechanism of Assembly of the Non-Covalent Spectrin Tetramerization Domain from Intrinsically Disordered Partners” (Journal of molecular biology, 2013).
